According to PMC3540032, “Comprehensive Analysis and Identification of the Human STIM1 Domains for Structural and Functional Studies” (PLoS ONE, 2013):

Target: T1, hSTIM1 S340-M490 (CAD-containing construct) (human, UniProt Q13586 340-490)
T1 construct: also called the CAD; source: E. coli Rosetta (DE3), purified (IMAC, SEC, IEX, low salt SEC)
Assay: SPR; Biacore T200; Orai1 peptide immobilised on a CM5 chip by ligand thiol coupling at 1000 RU; analytes injected at 10 µM; HBS-EP buffer (20 mM HEPES, pH 7.4, 150 mM NaCl, 3.4 mM EDTA, 0.005% Polysorbate 20), 30 µL/min
Conditions: both partners purified

T1 sequence (Q13586 340-490): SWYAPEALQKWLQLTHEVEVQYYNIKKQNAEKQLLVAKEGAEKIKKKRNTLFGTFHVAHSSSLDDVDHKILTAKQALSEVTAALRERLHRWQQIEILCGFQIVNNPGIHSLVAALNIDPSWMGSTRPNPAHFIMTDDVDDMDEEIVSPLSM

binding result: binds
B1: Orai1 C-terminal peptide with an extra N-terminal Cys (peptide)
peptide: CRSLVSHKTDRQFQELNELAEFARLQDQLDHRGDHPLTPGSHYA
notes: extra Cys added to the N-terminus for immobilisation via thiol coupling; The added Cys is coupled to the CM5 chip by thiol coupling, which leaves the C-terminal end free; also called Orai1 C-terminus; Orai1 C-terminal domain; source: synthetic peptide (Peptide 2.0), purified by SEC (Superdex Peptide)
